Assay: soluble on expression in E. coli; label from the status in PepcDB or PDB records

Sequence | soluble on expression in E. coli
MSSKGSVVLAYSGGLDTSCILVWLKEQGYDVIAYLANIGQKEDFEEARKKALKLGAKKVFIEDVSREFVEEFIWPAIQSSALYEDRYLLGTSLARPCIARKQVEIAQREGAKYVSHGATGKGNDQVRFELSCYSLAPQIKVIAPWRMPEFYNRFKGRNDLMEYAKQHGIPIPVTPKNPWSMDENLMHISYEAGILENPKNQAPPGLYTKTQDPAKAPNTPDILEIEFKKGVPVKVTNVKDGTTHQTSLELFMYLNEVAGKHGVGRIDIVENRFIGMKSRGIYETPAGTILYHAHLDIEAFTMDREVRKIKQGLGLKFAELVYTGFWHSPECEFVRHCIAKSQERVEGKVQVSVLKGQVYILGRESPLSLYNEELVSMNVQGDYEPTDATGFININSLRLKEYHRLQSKVTAK | not soluble
MSSNRQAYYKNNAKEQIGKEKRNEEVVSIRKDKREEAISKRRNINTQIEDDSETSTTPPGPFDANLLRLTVAAAQSSDPAEQLTAVQQARKMLSTDRNPPIDDLIGSGILPVLVQCLSSTDPNLQFEAAWALTNIASGTSEQTQAVVNAGAVPLFLQLLSCGNLNVCEQSVWALGNIIGDGPHFRDYCLELGILQPLLQFINPEIPIGFLRNVTWVIVNLCRCKDPAPSPAVVRTILPALSLLIHHQDTNILIDTVWALSYLTDGGNEHIQMVIEAQVVTHLVPLLGHVDVKVQTAALRAVGNIVTGTDEQTQLVLDSGVLRFMPGLLAHYKEKINKEAVWFVSNITAGNQQQVQDVFDAGIMPMIIHLLDRGDFPTQKEAAWAISNVTISGRPNQVEQMVKLGVLRPFCAMLSCTDSQIIQVVLDGINNILKMAGEAAEQVTSEIEECGGLDKIENLQNHENEDIYKLAFEIIDNFFSSDDETGNVEGAQSSAFGGDVPPVPDAPNGGWNFGK | not soluble
MSSQQQESEASGYNTSASSEFGSLEDSHQFVSPVTRHASKRRAVENVDHLDELMKSSMVLSPEKRLRLNTSNDSNLVRNTARSPDSSMNGRPQTRRSTSSDIEISPRVRAMRSTSGSSMDLVRTVSSFCTDSISPKFFTNHGSTTRKRTENGSIYSRHRLGATFSPLVAGAKRKMATPSQSLKRQEKQSPLESRHGGLRSRGTPQRKLLLCDRLKVLN | not soluble
MSSQVEHPAGGYKKLFETVEELSSPLTAHVTGRIPLWLTGSLLRCGPGLFEVGSEPFYHLFDGQALLHKFDFKEGHVTYHRRFIRTDAYVRAMTEKRIVITEFGTCAFPDPCKNIFSRFFSYFRGVEVTDNALVNIYPVGEDYYACTETNFITKVNPETLETIKQVDLCNYVSVNGATAHPHIENDGTVYNIGNCFGKNFSIAYNIVKIPPLQADKEDPISKSEIVVQFPCSDRFKPSYVHSFGLTPNYIVFVETPVKINLFKFLSSWSLWGANYMDCFESNETMGVWLHIADKKRKKYINNKYRTSPFNLFHHINTYEDHEFLIVDLCCWKGFEFVYNYSYLANLRENWEEVKKNARKAPQPEVRRYVLPLNIDKADTGKNLVTLPNTTATAILCSDETIWLEPEVLFSGPRQAFEFPQINYQKYGGKPYTYAYGLGLNHFVPDRLCKLNVKTKETWVWQEPDSYPSEPIFVSHPDALEEDDGVVLSVVVSPGAGQKPAYLLILNAKDLSEVARAEVEINIPVTFHGLFKKS | soluble
MSSRKELANAIRALSMDAVQKAKSGHPGAPMGMADIAEVLWRDFLKHNPQNPSWADRDRFVLSNGHGSMLIYSLLHLTGYDLPMEELKNFRQLHSKTPGHPEVGYTAGVETTTGPLGQGIANAVGMAIAEKTLAAQFNRPGHDIVDHYTYAFMGDGCMMEGISHEVCSLAGTLKLGKLIAFYDDNGISIDGHVEGWFTDDTAMRFEAYGWHVIRDIDGHDAASIKRAVEEARAVTDKPSLLMCKTIIGFGSPNKAGTHDSHGAPLGDAEIALTREQLGWKYAPFEIPSEIYAQWDAKEAGQAKESAWNEKFAAYAKAYPQEAAEFTRRMKGEMPSDFDAKAKEFIAKLQANPAKIASRKASQNAIEAFGPLLPEFLGGSADLAPSNLTLWSGSKAINEDAAGNYIHYGVREFGMTAIANGISLHGGFLPYTSTFLMFVEYARNAVRMAALMKQRQVMVYTHDSIGLGEDGPTHQPVEQVASLRVTPNMSTWRPCDQVESAVAWKYGVERQDGPTALILSRQNLAQQERTEEQLANIARGGYVLKDCAGQPELIFIATGSEVELAVAAYEKLTAEGVKARVVSMPSTDAFDKQDAAYRESVLPKAVTARVAVEAGIADYWYKYVGLNGAIVGMTTFGESAPAELLFEEFGFTVDNVVAKAKELLHHHHHH | soluble
MSSSGVYTCNSCVLTFDSSDEQRAHMKSDWHRYNLKRRVAQLPPISFETFDSKVSAAAASTSKSAEKEKPVTKKELKRREKQALLEKKKKLLEIARANMLENMQKSQEGNTPDLSKLSLQENEENKEKEEPKKEEPEQLTEEEMAERVMQENVRNRVDIPLEQCLFCEHNKHFKDVEENLEHMFRTHGFYIPEQKYLVDKIGLVKYMSEKIGLGNICIVCNYQGRTLTAVRQHMLAKRHCKIPYESEDERLEISEFYDFTSSYANFNSNTTPDNEDDWEDVGSDEAGSDDEDLPQEYLYNDGIELHLPTGIKVGHRSLQRYYKQDLKPEVILTEGQGTLVAAETRSFLPAFDKKGVQTQQRVWQTERFDKKRLDKRSAKFVNNQPHYRDQLLQ | soluble
MSSSTKTLSQTYGPRPQSFSLDEAGERYYIGSEIGAYLRLHRGTLYKKYPLLWRKVATSDDKDKLKQIAMSNAFLHTNIMLLRAHEVDELLDGSEEKYRAAGAAPSTPRTEGASRTVAKTPATGWAGQQVTSGSHHLESVPCSCPIAHSRGRMKHRELVYSAEDLEMSKRVMKNAEEGEDLVPIRLDMELDGIKLRDTFTFNKNEKMITPEMIAEIMCEDLDLPLAVFQPAITAAINQQLEASTEAPPLDVNICDQRAVLKLNINVGNQSLVDQFEWDMSDPNNSPEEFSRNICKELGLGGEFMSGIAYSIRGQLQWNQRTYAFSESPLATVDCPFRTSSEVESWGPFLETLTDAEIEKKMRDQDRNTRRMRRLVGGGFNY | not soluble
MSSTQEASVTDLPVKRPREAEEDNNGGAMETENGGGEIKEPSCMSSIIPGWFSEISPMWPGEAHSLKVEKILFQGKSDYQDVIVFQSATYGKVLVLDGVIQLTERDECAYQEMITHLPLCSISNPKKVLVIGGGDGGVLREVARHSSVEQIDICEIDKMVVDVAKQYFPNVAVGYEDPRVNLIIGDGVAFLKNAAEGTYDAVIVDSSDPIGPAKELFEKPFFESVNRALRPGGVVCTQAESLWLHMDIIEDIVSNCRDIFKGSVNYAWTSVPTYPSGVIGFMLCSSEGPQVDFKKPVSLIDTDESSIKSHCPLKYYNAEIHSAAFCLPSFAKKVIDSKAN | soluble
MSSVMSHTGGKEGTYPGTRASATMIGDDETNWGTKSLAILDMPFTAVMDTLLLPWDVFRKDSSVRSRVEKSEANAQATNAVIPPARMPDNLEHHHHHH | not soluble
MSSYFPVYLDLKDKEVLVIGGGRVATRKVKTLLEFTKNITIVSPKVTEELKNLIKEKKIKWIDRKFKPSDLKDKFLVVVAVDDIKLQKRVFNLCEKRGILCNSVDSPKYCNFIFPSIIKRGDLVISISTSGKVPALSRALREKIEECLPENIEEIMKELEIIRKSEEKGEERQKKLLRLARELLKNFLEHHHHHH | soluble
MSTAFAIPLFQFSPKPLHWKKRIAMWKAEIMDIKTTETGSRGEYSATIDGHKAQMTYSRTSPSLIIIDHTGVPDALRGKGVGQALAAHAIDEARKGGWKIIPLCPFFKAQTLRHADWADVIQGLEHHHHHH | soluble
MSTASVLDDIDYDSSFEMVEEEKFEKIENTDNSENFQYVSTKGNTVKEVNINSNEKKKKEAPIQILTAMIGKWKLASSENLQEYFTLEKFPEITQMAWEHGITCYKMNGNQLHVHTDLLGKSLIPTIFEFDKPIARDDNAVSTHAEGNMMSTICKRIADGSIVWKVERLIKNGNLVVFNSRGNFRCKRVYKRVN | not soluble
MSTCKQFLSTKKKSKDSYEFIENLGEGSFAEVVLVAKVGTPNKMFAMKEISIVGKDECFMESIKRECSIQKRLSKSRHLNMIHLFEIRTNPENYQLILSYADGGDLFEKINQHGGLGSDEAHRYFKQLIDGLRFIHEEGVTHRDIKPENLLLTKSGILKIADFGFATMHRFNGAEQMLNAYCGSPPYIAPEVLTGIDYRGPAVDIWSAGVVLIAMIAGAVPWEQADHFDIFQSRYCSFRRNGRKGAWSRMSQQVISLLRKILLQAELRATISMIEEDPWFIYGEEVDAENKENGSQAQYRQESQTSSKPILNFENLLKDLNVSI | not soluble

Source: the DeepSol protein solubility set
